Data reported in publication PMC9556795, “Micro-electron diffraction structure of the aggregation-driving N terminus of Drosophila neuronal protein Orb2A reveals amyloid-like β-sheets” (The Journal of Biological Chemistry, 2022).

Target: the molecule itself
Test: crystal structure; micro-electron diffraction (micro-ED) of M9I microcrystals grown in batch: 6 mg/ml peptide in 1% DMSO mixed 1:1 with 0.1 M sodium phosphate pH 4.6, 1.5 M NaCl, room temperature; 1.05 Å, direct methods

B1: M9I, the first 9 N-terminal residues of Drosophila Orb2A (peptide)
peptide: MYNKFVNFI
notes: Dissolved in 100% DMSO, then diluted in water or buffer; Terminal protecting groups are not mentioned; also called M9I-WT; wildtype M9I; source: synthetic peptide, bought: Genscript (>98% purity)
binding result: binds
